assay: soluble on expression in E. coli; label from the status in PepcDB or PDB records

| Sequence | soluble on expression in E. coli |
| --- | --- |
| MSLQRPKVKGMDQTLATSRKTSNACNVLALCTRDNPAILTIAHRGFWTATAENSLASVRAAVAAGVEMIEIDTQATADGRLVVIHDETLDRTTTGKGTVSALPFEVVRAAKLKAGAGGDGADVTDECVPTLEEVLEEARGRITVNIDTKFTRDLPQVMETVLRLGVEDQVLVKTDVDPEAERFEVLGSHWFGRIPHMPMFPVRKGKFAEDLRRIEALKAPMIEVKFTDIADLAEGRAEMERQNIRLWINSLDVSHCLDFNDTRALSNPEAVWGALAEAGTGAIQTDEVEAFTAWLKAGAGETGRAWTREGHHHHHH | soluble |
| MRPQNTNGDFYVDTTCIDCDTCRWMTPEVFHRVDEMSAVYHQPTNETERLAALQALLSCPTSSIGTVEKLEHHHHHH | not soluble |
| GRMENEESDVKPPDWPNPMNATSQFPQPQHFDSFGLRLPRDITELPEWSEGYPFYMAMGFPGYDLSADDIAGKFQFSRGMRRSYDAGFKLMVVEYAESTNNCQAAKQFGVLEKNVRDWRKVKPQLQNAHAMRRAFRGPKNGRFALVDQRVAEYVRYMQAKGDPITREAMQLKALEIAQEMNIPEKGFKASLGWCRRMMRRYDLSLRHKVPVPQHLPEDLTEKLVTYQRSVLALRRAHDYEVAQMGNADETPICLEVPSRVTVDNQGEKPVLVKTPGREKLKITAMLGVLADGRKLPPYIILRGTYIPPGKFPSGMEIRCHRYGWMTEDLMQDWLEVVWRRRTGAVPKQRGMLILNGFRGHATDSVKNSMESMNTDMVIIPGGLTSQLQVLDVVVYKPLNDSVRAQYSNWLLAGNLALSPTGNAKKPPLGLFLEWVMVAWNSISSESIVQGFKKCHISSNLEEEDDVLWEIESELPGGGEPPKDCDTESMAESN | soluble |
| MRTKDIYRLELRKIKIDKRMMKRILRLGIPSGIQQSIISLSNVVVQANVNIFGSTVMAGFGAYNKVDGFVVLPMQSFCMAATTFTGQNIGAGKPERIREG | not soluble |
| MSLVLAYYSGYAGNYAALTRYAASFNAVAVDFYNITAQGAVTGNGDPAPNDAISFLLGRKIPAYGCVSNVDGNGNWSADIAHAVSTSAQSQAVANLVKFAQDKRFSGINVDFEAVAQGDRNNFSHFIQVLGRALHAKGLKLIVSVPAFSAKDENHPANYGYDLRALGAAADYLQIMSYDEAIPAWDPGPVAGSDWMEDDLDYAVERVPAAKILNGIPAYGYDWKRPGDGGMLYWKDTQALIARYGAQPRYDAGTHSLTFNYGAADGSRHTVWTENARSVALKASLVNAYGLGGTSLYALGMEDEGHHHHHH | soluble |
| MAVIVRKWFGLGRLPADLRCQVEAEGLIYLAEYVAVTRRFTGVIPGLRASHSIASYVGALAFTEQRVLGTLSMVPKLAGRVVDARWDGPQAGAATAEISPTGLQLDLDVADVDPKFSGQLALHFKATIGEDVLSRLPRRSLAFDVPAEYVNLAVGVTYSP | soluble |
| MGSSHHHHHHGGTGENLYFQGGSGLLSHHCIYPSRMFGDGRLLMDTSISGGMLLGLDVCGGVKLWPQHQYTAVELILPSALSGVREVLVPPVSMSGAGEESQRASEAGSGKQRASSPPLPRNLPGSRVIRIIHEASEIPAEVAGSYNSALNGSRRKGSKAMRSLDRGPAGTSGGRASSSIVPRYFDEFHRLRSQRVMEGSLKTVLEATNASIIGEARLRRQRRRYAVKHNKTIFIKGKTAAGDEQ | not soluble |
| MSLVISIRRSRHEEGEELVAIWCRSVDATHDFLSAEYRTELEDLVRSFLPEAPLWVAVNERDQPVGFMLLSGQHMDALFIDPDVRGCGVGRVLVEHALSMAPELTTNVNEQNEQAVGFYKKVGFKVTGRSEVDDLGKPYPLLNLAYVGAEGGSHHHHHH | soluble |
| MNLRTQKFHMYFKQWIELYKEGAVRPVTYQKYQMSHKHLVTLAPDLHMDELKRRTYQELINEFAANHEKQTTLDFHHHLKAAILDALDEGILEQDPTRKVVIKGTLEHHHHHH | soluble |
| MSLETTVITADRMIDVANGKVVKQAAVIVTDNIITASGRLKDLTVPNEATRIDLGNATLMPGLMDMHVHLTSDATRHGYKRLEVSLPRAAITGVKHAKATLDAGFTTVRNVGAPGFADVALRDAINAGDVVGPRMFVAGPSLGVTGGHCDSNLLPYEYDNYSEGVADGPWEVRKKVRRNIKYGATVIKFCATGGVLSKGTKVGAQQYTFEEMKALIDEAHLRGLTVATHAHGTNGIKAAIKASVDSVEHVSLLDDEAIDLAKKNGTYFSMDIYVTEYILGEGEKAGILEESLNKERIVGKTQRENFEKAVKAGVNMVFGSDAEGHHHHHH | soluble |
| MAHHHHHHMKKASKNSNYHGLEKSLRRRGGKIKTIYEKYKDIDFQNIIDEKIKYVWNYINNIDDIISDEEFLKEEIKQKLEKKQSLKKNDDFDEIIYYNKNVKNLINIQKVRKALYHFNIKVDMEDIMHMFLYYTNQDYFLKFIQNNIYSKNYVERKMDKYKFTSININNLYINYEMFKFIFLNIDMNIEQNGQMW | not soluble |
| MAVDVFITAPSSTPLACEMTISKLVLASGSPRRRELLAQMGYQFEVVVPNVEEKRAAAESPAQYVERLSRDKALAGAALVAAEAVVIGSDTIVVKDQQVLEKPRDFADAKRMLLKLSGSQHQVMTGVSVTCRGITHSVVVTTEVWFKTLSEQEIEAYWQSGEPCDKAGSYGIQGLGGRFVTRIEGSYHAVVGLPLYETDQLLHKF | not soluble |
| MTIWLVTRHPGAIEWVARQGIQWDKHAAHLDPCEITAGDTVIGSLPINLAAEICNRGARYFNLSLNLPAHLRGRELDAATLTACEARLEEYIVKKVNS | not soluble |
| MPIPAPSPDARAVVTGASQNIGAALATELAARGHHLIVTARREDVLTELAARLADKYRVTVDVRPADLADPQERSKLADELAARPISILCANAGTATFGPIASLDLAGEKTQVQLNAVAVHDLTLAVLPGMIERKAGGILISGSAAGNSPIPYNATYAATKAFVNTFSESLRGELRGSGVHVTVLAPGPVRTELPDASEASLVEKLVPDFLWISTEHTARVSLNALERNKMRVVPGLTSKAMSVASQYAPRAIVAPIVGAFYKRLGGS | not soluble |
| MSLMKNILAIQSHVVYGHAGNSAAEFPMRRLGANVWPLNTVQFSNHTQYGKWTGCVMPPSHLTEIVQGIAAIDKLHTCDAVLSGYLGSAEQGEHILGIVRQVKAANPQAKYFCDPVMGHPEKGCIVAPGVAEFHVRHGLPASDIIAPNLVELEILCEHAVNNVEEAVLAARELIAQGPQIVLVKHLARAGYSRDRFEMLLVTADEAWHISRPLVDFGMRQPVGVGDVTSGLLLVKLLQGATLQEALEHVTAAVYEIMVTTKAMQEYELQVVAAQDRIAKPEHYFSATKLEGGSHHHHHH | soluble |
| MAHHHHHHMPSGERRGRVGPVRFRTFLRNTVLDVMRSRGWLETDSDLGWDLFWADVGWIREVHDHVRLDDVQRINHFRNHFELTRKDFMVKNLKRMRKSLEREGRLEEATEFDFFPVTFSLPQDYGMFETEFRRQPNAIWIMKPPAKAQGKGIFLFSKISQIAEWRKDYKQRQVGAVGEKAGGPYGAEQVEPYLAQRYIENPHLVGGKKYDLRVYVLVTCYSPLTVWLHRTGFARFCHQRFSLRDIENTFIHVTNVAVQKTNPKYTPSSGCKYGLRNLRQYITASRGVETAQKLFDDIQNMILRSLHAVQKIIVQDKHCFELYGYDIMVDNDLHPWLIETNASPSLSAETPADYHLKFNMLEDMFSVIDIEKRRTGDEIRVGGFDLIWKNGPVGPACRGDAKGGGVTQSFLGCANELEIPISHMRMPPRLQQMDSSERLLT | not soluble |
| MHRGITVQTSDLDDGVTGVVGKVYIEASPKHVWAAITDYNNHKSFVPKLIDSGLISDNGREQVMFERGKTGIFLFRKTVYIKLSLQGEYPKRLDFHQIEGDFKVYEGDWLIERASDGKGSILTFRAKIKPDFFAPAMFVRKVQQNDLPLEHHHHHH | soluble |
| MPCRLRKITVYETKSRFYIIGCDSTGSRYNVLKIDRIDPKALITGEPEYDYTREEILELLATISDGSSVVYRSSSKKGTKSGLIERATNAFGILGCVRFVEGYYLIIITRAHAVATLGYHPVYKIVEVAMIPIAMDGVSTSSEEQKYVKLFQSVDLSTDFYFSYSYDMSRTFQENSLRSDWNNHGQRRLEADERFVWNSFLLEPLRKNLISERWFVEIVHGYVRQEYIFLPIGRISLTIIGRRSTKYAGTRFLKRGANPTGNVANYVETEQIVWDMASSGNVADGRFSSFVQMRGSVPMRWSQDPSTRGVVGKPLILIDNHEPHAQTAASHFRDVRNKYGNPIVIMNLIKRNEKRRHEGVLHTQFLKNIEYLNQFLPNEEKLCYISFDVARCNKAANSMPSINVLNVMEDLSMKSILKNGWFQSFPLSEALKIRPREAFATLDAHHSKDGRFMIQHGICRTNCVDCLDRTNVAQFVIAKVALGCQLCAMGILDEPNLTLQSEVCRLLEDMFDEHGDTMALQYAGSQLVHSIKTYKKTAAFQERRRDVFQTLSRYYSNTFNDWDKQMAINLFLGVFRPRITTMKNLWDLTSDYNLHFPYSLKINTDYCAWTLSEKELEDLVFLDYDESENSDGYVEIRSIDVDGRRGSEGSEYRTLLFSSHEDFRDYHRTYEFTSLDDRIGRLFSIENRAIQVDGINEEPTTHAQFLKLWKTTETKEKDQKKPNKKDKEEKESDDEDDDEEISTQWSDVVEAQQEWYDLVNAPGNVTTTLQKSPTKRESTPPRNTSRAKRSLLSTGLQFAKDIYHLDHLKTQPEERRYYEKYAITAFKCNVRDWEKVKPTLLSEFKITSEVEPRRPTFFTTDDCYRTESPEVSGNSARFYIKSSHPLTTECSAQDYGFFSKYMQAT | not soluble |
| MAKDIKFSEEARRSMLRGVDTLANAVKVTLGPKGRNVVLEKKFGSPLITNDGVTIAKEIELEDAFENMGAKLVAEVASKTNDVAGDGTTTATVLAQAMIREGLKNVTAGANPMGLRKGIEKAVVAAVEELKTISKPIEGKSSIAQVAAISAADEEVGQLIAEAMERVGNDGVITLEESKGFTTELDVVEGMQFDRGYASPYMITDSDKMEAVLDNPYILITDKKISNIQEILPVLEQVVQQGKPLLIIAEDVEGEALATLVVNKLRGTFNVVAVKAPGFGDRRKAMLEDIAILTGGEVITEELGRDLKSATVESLGRAGKVVVTKENTTVVEGVGSTEQIEARIGQIRAQLEETTSEFDREKLQERLAKLVGGVAVIKVGAATETELKERKLRIEDALNSTRAAVEEGIVAGGGTSLMNVYTKVASIVAEGDEATGINIVLRALEEPVRQIAINAGLEGSVVVERLKGEKVGVGFNAATGEWVNMLETGIVDPAKVTRSALQNAASVAAMFLTTEAVVADKPEPNAPAMPDMGGMGMGGMGGMM | not soluble |
| MSLNLTTTVLSLQLEQPFVSNKGSTTTVHQVVIKLTWQEYGGFGTVLCPKETQLSVEQIQQLIQACEPLLSTATPWQFELYQGQLASVVRNQAAMMAGIDMAWHDLLGKVVAQPIHALWGLAGLSIPPTALSLGAQSEQALVAQAAKLAAWPILKLKLTTDSNLDSLRQLREVYAGRIWVDGNGAWDVDQAIAAAQQCHTYGVELIEQPIPAGNLDQLRTIRQHSPIPIVADEDCRGLADVLRLHTCVDVINLKLFKCGGLRQARTMIDVAKQFGLKVMLGCKTESSLGISAIAQLAGLADYLDLDGHLDLVNDPFQGLVIEQGTLRLPQTPGLGLTIQGAIEEGHHHHHH | not soluble |
